The assay concerns the target neonatal Fc receptor (FcRn) (UniProt P55899). Put plainly: ELISA; pH 6.0; absorbance read with a plate reader; Kd defined as the concentration of protein that produces 50% of optimal binding response; who was immobilised is not given in the source. On the technique in general: An ELISA detects its analyte on a solid surface through an enzyme-linked reagent.

Chain of neonatal Fc receptor (FcRn) (P55899 24-365): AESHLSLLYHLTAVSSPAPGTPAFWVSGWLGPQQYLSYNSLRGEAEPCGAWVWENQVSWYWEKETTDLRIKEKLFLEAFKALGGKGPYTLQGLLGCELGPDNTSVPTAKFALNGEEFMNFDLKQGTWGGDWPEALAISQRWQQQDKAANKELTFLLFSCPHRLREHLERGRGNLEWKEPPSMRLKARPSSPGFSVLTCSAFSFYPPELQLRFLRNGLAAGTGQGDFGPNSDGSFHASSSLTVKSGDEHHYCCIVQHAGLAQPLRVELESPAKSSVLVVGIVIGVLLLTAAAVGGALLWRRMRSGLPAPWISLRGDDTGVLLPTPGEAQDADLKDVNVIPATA

Substance Fc-PepH3 conjugate (Fc fusion) came in with a Kd of 95.4 nM.

By Kd is commonly meant the constant that tells how readily two partners part at equilibrium.
